According to patent US20100041597A1 (published 2010):
Where no end group is shown, it is not given here.

Columns and labels:
[1] = target: T1, PKC-δ (purified isoform) (Homo sapiens (Human), UniProt Q05655 1-676); assay: competitive ELISA on purified PKC-δ vs anti-PKC-δ Ab; PRE 100 µM
T1 construct: also called PKC-delta; PKCdelta
Procedure: (§1) Greiner 96 well ELISA plates were coated with the appropriate PKC isoform diluted in PBSN (PBS with Calcium/Magnesium+0.05% Sodium azide w/w). 50 μL/well at 250 ng/mL was used. Control wells contained PBSN only. Plates were incubated overnight at 4° C.
(§2) The plates were washed 3 times with 200 μL of dH₂O per well, then 100 μL of blocking solution was added per well and the plate incubated for 1 h at 37° C. The washing steps with dH₂O were repeated and 50 μL of the appropriate PRE solution (PRE stock solution [20 mM in DMSO] diluted in PBSN) was added and the plate incubated for 1 h at room temperature.
(§3) 50 μL of 1:1000 dilution of Alkaline Phosphatase (AP) conjugated antibody (anti-rabbit for all except zeta, which was anti-goat) was then added and the plate incubated for 1 h at room temperature. Washing with dH₂O was then repeated. Finally, 100 μL of pNPP solution in pNPP buffer (2 mM MgCl₂, 100 mM Sodium bicarbonate in water, pH 9.8) was added to all wells and incubated for 8 minutes for α, βI, βII ε, and ζ, or for 15-20 mins for […] (until sufficient coloration is observed). The reaction was stopped by addition of Stop solution (2N NaOH) and the absorbance at 405 nm was read on a Galaxy Plate reader.

[2] = target: T1, PKC-δ (purified isoform); assay: competitive ELISA on purified PKC-δ vs anti-PKC-δ Ab; PRE 200 µM
Procedure: as §1, §2, §3

[3] = target: T2, PKC-α (endogenous, human cell lysates and cells) (human, UniProt P17252 2-672); assay: anti-PKC-α immunofluorescence, V5E-transfected IMR-32 cells loaded with PRE (label on PKC-α and V5E); control with endocytosis reagent 113
T2 construct: Endogenous protein of human cell lysates, on Western blot membranes (denatured) or in fixed cells; also called PKC-alpha; PKC-A
Text: Neuroblastoma cells from the IMR-32 cell line were stably transfected with a vector containing the V5E sequence of PKC-α as outlined above in Example 13. The V5E sequence is part of the antigenic amino acid sequence that is used to raise the commercially available anti-PKC-α isoform-specific antibody.
The peptides PRE 1, 2, 3, 4, 5, 6, 7, 8, 9, 10, 11, 12 and 13 (see Table 3) were incorporated into the transfected IMR-32 cells via pinocytic endocytosis (Molecular Probes) according to the supplier's recommendations. Following fixation and permeabilization, PKC-α was detected using an Alexa fluor secondary antibody (as described above in Example 8).

[4] = target: T1, PKC-δ (purified isoform); assay: competitive ELISA on purified PKC-δ vs anti-PKC-δ Ab; PRE 50 µM
Procedure: as §1, §2, §3

[5] = target: T3, PKC-βII (purified isoform) (Homo sapiens (Human), UniProt P05771 2-621); assay: competitive ELISA on purified PKC-βII vs anti-PKC-βII Ab; PRE 100 µM
T3 construct: also called PKC-beta II
Procedure: as §1, §2, §3

[6] = target: T3, PKC-βII (purified isoform); assay: competitive ELISA on purified PKC-βII vs anti-PKC-βII Ab; PRE 200 µM
Procedure: as §1, §2, §3

[7] = target: T3, PKC-βII (purified isoform); assay: competitive ELISA on purified PKC-βII vs anti-PKC-βII Ab; PRE 50 µM
Procedure: as §1, §2, §3

[8] = target: T4, PKC-ε (endogenous, human cell extracts) (human, UniProt Q02156 1-737); assay: Protocol B blot competition, IMR-32 extract, competitor anti-PKC-ε Ab, Band 2; PRE 20 µg
T4 construct: Two bands on the blot, said to be alternate splicing variants; also called PKC-epsilon; PKC-ε Band 1
T4 sequence (looked up): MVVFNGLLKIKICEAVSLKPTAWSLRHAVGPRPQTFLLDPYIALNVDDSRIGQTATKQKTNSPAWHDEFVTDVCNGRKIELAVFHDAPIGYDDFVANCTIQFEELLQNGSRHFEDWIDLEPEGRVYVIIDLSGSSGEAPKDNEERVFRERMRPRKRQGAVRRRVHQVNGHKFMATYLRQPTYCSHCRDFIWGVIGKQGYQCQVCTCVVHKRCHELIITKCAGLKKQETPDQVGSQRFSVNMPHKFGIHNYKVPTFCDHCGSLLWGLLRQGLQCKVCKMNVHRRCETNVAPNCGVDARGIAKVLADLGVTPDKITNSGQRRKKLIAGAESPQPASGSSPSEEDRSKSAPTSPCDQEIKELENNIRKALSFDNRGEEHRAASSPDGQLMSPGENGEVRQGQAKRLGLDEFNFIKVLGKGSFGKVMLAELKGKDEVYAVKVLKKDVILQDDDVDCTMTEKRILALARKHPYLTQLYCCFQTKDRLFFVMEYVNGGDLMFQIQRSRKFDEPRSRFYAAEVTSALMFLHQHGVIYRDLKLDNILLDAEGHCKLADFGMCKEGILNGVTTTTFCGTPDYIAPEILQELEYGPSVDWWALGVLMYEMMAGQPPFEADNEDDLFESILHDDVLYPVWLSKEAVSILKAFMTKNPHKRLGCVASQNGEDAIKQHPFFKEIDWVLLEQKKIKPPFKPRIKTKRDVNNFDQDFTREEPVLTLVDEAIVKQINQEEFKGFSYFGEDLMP
Procedure: (§4) The ability of the peptides PRE 2 and PRE 3 (see Table 3) to interfere with the binding of a PKC-α-specific polyclonal antibody (Santa Cruz Biotechnology, Inc.) to PKC-α was determined using a modified version of the protocol outlined above in which the test peptide was added directly to the cell extract prior to electrophoresis at a concentration of either 5× or 15× the concentration of the protein applied to each well of the gel for the Western blots (20 μg).
(§5) Peptides PRE 2, PRE 3 and PRE 4 (see Table 3) were tested for their ability to interfere with the binding of isoform-specific polyclonal antibodies (Santa Cruz Biotechnology, Inc.) to PKC-ε using the general protocol described in Example 3. Two bands, representing alternate splicing variants of PKC-ε, were identified on the Western blot using this anti-PKC-ε antibody.

[9] = target: T4, PKC-ε (endogenous, human cell extracts); assay: Protocol B blot competition, IMR-32 extract, competitor anti-PKC-ε Ab, Band 2; PRE 100 µg
Procedure: as §4, §5

[10] = target: T4, PKC-ε (endogenous, human cell extracts); assay: Protocol B blot competition, IMR-32 extract, competitor anti-PKC-ε Ab, Band 2; PRE 50 µg
Procedure: as §4, §5

[11] = target: T4, PKC-ε (endogenous, human cell extracts); assay: Protocol B blot competition, IMR-32 extract, competitor anti-PKC-ε Ab, Band 1; PRE 20 µg
Procedure: as §4, §5

[12] = target: T4, PKC-ε (endogenous, human cell extracts); assay: Protocol B blot competition, IMR-32 extract, competitor anti-PKC-ε Ab, Band 1; PRE 100 µg
Procedure: as §4, §5

[13] = target: T4, PKC-ε (endogenous, human cell extracts); assay: Protocol B blot competition, IMR-32 extract, competitor anti-PKC-ε Ab, Band 1; PRE 50 µg
Procedure: as §4, §5

[14] = target: T5, PKC-ζ (purified isoform) (Homo sapiens (Human), UniProt Q05513 1-592); assay: competitive ELISA on purified PKC-ζ vs anti-PKC-ζ Ab; PRE 50 µM
T5 construct: also called PKC-zeta; PKCzeta
T5 sequence: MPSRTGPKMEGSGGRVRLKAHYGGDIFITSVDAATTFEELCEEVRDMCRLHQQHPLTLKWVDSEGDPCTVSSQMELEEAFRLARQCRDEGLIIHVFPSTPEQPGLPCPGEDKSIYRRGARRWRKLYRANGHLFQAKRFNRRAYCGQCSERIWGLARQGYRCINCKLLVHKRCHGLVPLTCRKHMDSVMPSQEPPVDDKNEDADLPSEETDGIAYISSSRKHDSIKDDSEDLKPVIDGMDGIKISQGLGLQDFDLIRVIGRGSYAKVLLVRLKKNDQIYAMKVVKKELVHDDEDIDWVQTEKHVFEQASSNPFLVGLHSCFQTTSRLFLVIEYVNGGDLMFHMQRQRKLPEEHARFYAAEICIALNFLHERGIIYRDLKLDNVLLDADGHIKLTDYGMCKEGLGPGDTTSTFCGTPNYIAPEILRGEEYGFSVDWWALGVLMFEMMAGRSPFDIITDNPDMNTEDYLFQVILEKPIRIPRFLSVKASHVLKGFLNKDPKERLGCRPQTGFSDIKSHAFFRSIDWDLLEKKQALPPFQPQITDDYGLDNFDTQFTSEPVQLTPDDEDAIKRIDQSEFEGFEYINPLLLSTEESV
Procedure: as §1, §2, §3

[15] = target: T5, PKC-ζ (purified isoform); assay: competitive ELISA on purified PKC-ζ vs anti-PKC-ζ Ab; PRE 200 µM
Procedure: as §1, §2, §3

[16] = target: T5, PKC-ζ (purified isoform); assay: summary grade, purified isoform ELISA
[17] = target: T5, PKC-ζ (purified isoform); assay: competitive ELISA on purified PKC-ζ vs anti-PKC-ζ Ab; PRE 100 µM
Procedure: as §1, §2, §3

T3 sequence (P05771 other isoform, or with tags, fused parts or gaps limits assumed): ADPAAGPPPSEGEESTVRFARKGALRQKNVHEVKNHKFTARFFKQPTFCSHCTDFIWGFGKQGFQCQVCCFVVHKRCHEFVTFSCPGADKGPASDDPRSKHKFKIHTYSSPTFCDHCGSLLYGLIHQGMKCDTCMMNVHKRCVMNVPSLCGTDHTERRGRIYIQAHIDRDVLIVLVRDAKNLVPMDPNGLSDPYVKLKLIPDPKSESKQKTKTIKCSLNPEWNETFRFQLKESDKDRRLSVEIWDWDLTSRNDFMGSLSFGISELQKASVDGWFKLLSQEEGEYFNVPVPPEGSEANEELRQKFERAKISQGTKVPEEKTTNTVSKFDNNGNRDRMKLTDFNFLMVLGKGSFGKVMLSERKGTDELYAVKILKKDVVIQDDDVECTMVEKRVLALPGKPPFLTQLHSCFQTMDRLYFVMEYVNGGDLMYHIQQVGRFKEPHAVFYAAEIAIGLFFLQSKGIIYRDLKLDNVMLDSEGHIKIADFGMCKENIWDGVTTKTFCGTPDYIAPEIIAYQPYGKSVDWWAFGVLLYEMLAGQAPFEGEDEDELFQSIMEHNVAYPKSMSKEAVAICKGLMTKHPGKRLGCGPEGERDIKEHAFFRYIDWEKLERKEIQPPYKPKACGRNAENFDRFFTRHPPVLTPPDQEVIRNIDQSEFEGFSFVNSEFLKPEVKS
T1 sequence (Q05655 whole entry, stated change not applied, canonical isoform): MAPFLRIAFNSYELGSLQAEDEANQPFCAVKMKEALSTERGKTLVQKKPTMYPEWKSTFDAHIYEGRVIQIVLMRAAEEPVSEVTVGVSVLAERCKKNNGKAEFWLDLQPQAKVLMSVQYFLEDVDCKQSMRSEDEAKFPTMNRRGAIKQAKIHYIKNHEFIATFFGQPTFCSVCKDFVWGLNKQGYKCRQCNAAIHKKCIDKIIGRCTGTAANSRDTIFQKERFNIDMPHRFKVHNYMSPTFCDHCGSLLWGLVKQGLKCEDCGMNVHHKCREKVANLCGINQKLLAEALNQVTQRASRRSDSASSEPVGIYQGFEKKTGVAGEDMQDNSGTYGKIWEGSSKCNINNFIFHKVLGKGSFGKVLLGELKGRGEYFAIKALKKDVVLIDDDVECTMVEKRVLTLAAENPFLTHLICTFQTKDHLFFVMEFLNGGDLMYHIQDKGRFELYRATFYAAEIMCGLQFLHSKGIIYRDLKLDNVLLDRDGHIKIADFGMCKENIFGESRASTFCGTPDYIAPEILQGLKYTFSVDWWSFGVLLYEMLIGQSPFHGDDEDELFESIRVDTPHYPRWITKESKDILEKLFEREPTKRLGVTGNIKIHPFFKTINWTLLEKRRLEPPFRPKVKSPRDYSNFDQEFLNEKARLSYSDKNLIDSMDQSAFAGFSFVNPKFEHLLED

B1: PRE 5 (peptide)
peptide: Ac-AKGIQEVKGGKDAQNLIGISI-NH2
notes: Synthetic peptide; also called peptide PRE 5
[1]
  binding capacity (%): 0%
[2]
  binding capacity (%): 4.31%
[3]
  Relative Fluorescence Intensity: 124
[4]
  binding capacity (%): 0.2%

B2: PRE 10 (peptide)
peptide: Ac-ISIGILNQADK-NH2
notes: Synthetic peptide; also called peptide PRE 10
[5]
  binding capacity (%): 0%
[6]
  binding capacity (%): 0%
[7]
  binding capacity (%): 0%
[3]
  Relative Fluorescence Intensity: 122

B3: PRE 2 (peptide)
peptide: KDAQNLIGISL-NH2
notes: Synthetic peptide; also called peptide PRE 2
[8]
  band intensity: 160
  inhibition (%): 38.6%
  relative intensity (%): 61.4%
[9]
  band intensity: 0
  inhibition (%): 100%
  relative intensity (%): 0%
[10]
  band intensity: 0
  inhibition (%): 100%
  relative intensity (%): 0%
[11]
  band intensity: 323
  inhibition (%): 23.4%
  relative intensity (%): 76.6%
[12]
  band intensity: 0
  inhibition (%): 100%
  relative intensity (%): 0%
[13]
  band intensity: 0
  inhibition (%): 100%
  relative intensity (%): 0%

B4: PRE 8 (peptide)
peptide: ILEDKGGDAQNLIGISI
notes: Synthetic peptide; termini given free; also called peptide PRE 8
[1]
  binding capacity (%): 3.38%
[2]
  binding capacity (%): 6.68%
[14]
  binding capacity (%): 0%
[3]
  Relative Fluorescence Intensity: 81
[15]
  binding capacity (%): 0%
[16]
  binding result: no binding (tested: 200 µM)
[4]
  binding capacity (%): 6.96%
[17]
  binding capacity (%): 0%
